First the molecules themselves.
T1: TNFR1 on transiently transfected cells (UniProt P19438 30-455, limits assumed)
T1 construct: whole, on cells
T1 sequence (looked up): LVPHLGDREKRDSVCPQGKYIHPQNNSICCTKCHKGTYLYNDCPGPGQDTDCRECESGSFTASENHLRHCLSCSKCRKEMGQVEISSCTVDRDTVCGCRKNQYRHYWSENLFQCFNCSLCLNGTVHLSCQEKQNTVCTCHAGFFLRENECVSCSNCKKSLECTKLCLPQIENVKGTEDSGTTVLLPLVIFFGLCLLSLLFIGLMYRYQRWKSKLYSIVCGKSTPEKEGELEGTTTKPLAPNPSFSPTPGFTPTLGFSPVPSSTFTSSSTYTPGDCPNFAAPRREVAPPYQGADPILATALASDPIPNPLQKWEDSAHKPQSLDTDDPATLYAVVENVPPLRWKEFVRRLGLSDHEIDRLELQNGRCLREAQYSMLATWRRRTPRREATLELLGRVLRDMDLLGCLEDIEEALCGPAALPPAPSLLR

T2: human TNFR2 expressed on the cell membrane (membrane-type TNFR2) (human, UniProt P20333 23-461)
T2 construct: also called TNFRSF1B; cell membrane type TNFR2
T2 sequence: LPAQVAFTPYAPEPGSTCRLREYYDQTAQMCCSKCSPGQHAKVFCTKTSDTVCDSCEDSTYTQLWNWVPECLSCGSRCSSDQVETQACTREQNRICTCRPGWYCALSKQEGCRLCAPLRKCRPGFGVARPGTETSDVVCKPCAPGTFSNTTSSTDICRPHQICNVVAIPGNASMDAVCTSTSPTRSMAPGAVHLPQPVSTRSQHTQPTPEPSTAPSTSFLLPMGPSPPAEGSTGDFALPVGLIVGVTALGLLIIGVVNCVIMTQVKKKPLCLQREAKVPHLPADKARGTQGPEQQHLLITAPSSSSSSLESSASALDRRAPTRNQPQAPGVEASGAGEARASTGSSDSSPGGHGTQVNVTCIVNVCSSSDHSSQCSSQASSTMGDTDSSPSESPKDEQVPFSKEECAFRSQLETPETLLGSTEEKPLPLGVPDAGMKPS

B1: TR109 (anti-TNFR2 antagonist antibody, mouse monoclonal) (antibody, V domains shown)
VH: QVQLKESGPGLVAPSQSLSITCTVSGFSLTVYGVNWVRQPPGKGLEWLGMIWGDGSTAYNSALKSRLTITKDNSKTQVFLKMNSLQTDDTARYYCARDGRRYALDYWGQGTSVTVSS
VL: DIVLTQSPTSLAVSLGQRATISCRASESVDSYGDSFLHWYQQKPGQPPILLIYRASNLDSGIPARFSGSGSRTDFTLTINPVEADDVATYYCQQSNEDPYTFGGGTKLEINR
notes: also called Ep9: TR109; Ep7
B2: humanized TR109 antibody (TR109HUVH1 + TR109HUVL1) (antibody, V domains shown)
VH: QVQLQESGPGLVKPSGTLSLTCAVSGGSISVYGVNWVRQPPGKGLEWIGMIWGDGSTAYNSALKSRVTISVDKSKNQFSLKLSSVTAADTAVYYCARDGRRYALDYWGQGTLVTVSS
VL: DIVMTQSPDSLAVSLGERATINCRASESVDSYGDSFLHWYQQKPGQPPKLLIYRASNLDSGVPDRFSGSGSGTDFTLTISSLQAEDVAVYYCQQSNEDPYTFGQGTKLEIK
notes: also called one of the four humanized TR109 antibodies
B3: humanized TR109 antibody (TR109HUVH1 + TR109HUVL2) (antibody, V domains shown)
VH: B2 VH
VL: EIVLTQSPATLSLSPGERATLSCRASESVDSYGDSFLHWYQQKPGQAPRLLIYRASNLDSGIPARFSGSGSGTDFTLTISSLEPEDFAVYYCQQSNEDPYTFGQGTKLEIK
notes: as for B2
B4: humanized TR109 antibody (TR109HUVH2 + TR109HUVL2) (antibody, V domains shown)
VH: B2 VH with G16E, A23T, G27Y, V37I, K73T
VL: B3 VL
notes: as for B2
B5: humanized TR109 antibody (TR109HUVH2 + TR109HUVL1) (antibody, V domains shown)
VH: B2 VH with G16E, A23T, G27Y, V37I, K73T
VL: B2 VL
notes: as for B2
B6: humanized TR92 antibody (TR92HUVH1 + TR92HUVL1) (antibody, V domains shown)
VH: QVQLVQSGAEVKKPGASVKVSCKASGYTFTESIIHWVRQAPGQGLEWMGWFYPGSDNINYNEKFKDRVTMTRDTSISTAYMELSRLRSDDTAVYYCARHEGPYVYFDYWGQGTTVTVSS
VL: DIVMTQSPDSLAVSLGERATINCKASQDVSTAVAWYQQKPGQPPKLLIYWTSTRHTGVPDRFSGSGSGTDFTLTISSLQAEDVAVYYCQHHYSTPYTFGQGTKLEIK
notes: also called one of the four humanized TR92 antibodies
B7: humanized TR92 antibody (TR92HUVH1 + TR92HUVL2) (antibody, V domains shown)
VH: B6 VH
VL: DIQMTQSPSSLSASVGDRVTITCKASQDVSTAVAWYQQKPGKAPKLLIYWTSTRHTGVPSRFSGSGSGTDFTLTISSLQPEDFATYYCQHHYSTPYTFGQGTKLEIK
notes: as for B6
B8: humanized TR92 antibody (TR92HUVH2 + TR92HUVL2) (antibody, V domains shown)
VH: B6 VH with P41T, D73N, R85S, D89E
VL: B7 VL
notes: as for B6
B9: humanized TR92 antibody (TR92HUVH2 + TR92HUVL1) (antibody, V domains shown)
VH: B6 VH with P41T, D73N, R85S, D89E
VL: B6 VL
notes: as for B6

Where a chain is given by its changes, count along the chain named.

The target of the first experiment is T1, TNFR1 on transiently transfected cells. In words: flow cytometry on transiently transfected cells. Background: A flow cytometer gives signals particle by particle.
As to B1, the binding result was “no binding”.

The next experiment has as its target T2, human TNFR2 expressed on the cell …. In words: flow cytometry on cells with transient expression of TNFR2 against untreated cells.
Turning to B2, the binding result is “binds”.
Still for that read-out and setting: the entry for B3 is “binds”.
As for B4, the binding result is reported as “binds”.
Consider B5, for which the binding result is recorded as “binds”.
As for B6, the binding result is given as “binds”.
On to B7, for which the binding result is “binds”.
As to B8, the binding result is reported as “binds”.
With B9, the binding result was “binds”.

The values above are taken from patent WO2018092907A1 (dated 2018).
